Data: patent publication US20040214771

Target: T1, recombinant purified full length SRF (pET-15b, histidine tag, expressed in BL21)
T1 chain: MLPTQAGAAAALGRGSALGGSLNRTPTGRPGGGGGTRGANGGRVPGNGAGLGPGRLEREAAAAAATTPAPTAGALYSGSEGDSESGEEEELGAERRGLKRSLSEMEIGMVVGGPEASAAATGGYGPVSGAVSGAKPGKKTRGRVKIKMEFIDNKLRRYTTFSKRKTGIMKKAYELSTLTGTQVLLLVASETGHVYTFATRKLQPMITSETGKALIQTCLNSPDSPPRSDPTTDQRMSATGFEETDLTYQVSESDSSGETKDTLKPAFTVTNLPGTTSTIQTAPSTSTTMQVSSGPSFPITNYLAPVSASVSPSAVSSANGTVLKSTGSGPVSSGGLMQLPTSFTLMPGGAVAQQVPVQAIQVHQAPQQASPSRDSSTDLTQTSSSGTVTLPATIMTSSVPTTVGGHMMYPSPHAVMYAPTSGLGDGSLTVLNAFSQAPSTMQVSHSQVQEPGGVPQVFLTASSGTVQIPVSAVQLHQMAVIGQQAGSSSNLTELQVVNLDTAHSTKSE

B1: active recombinant human caspase 3 (BD PharMingen) (protein)
chain: SGISLDNSYKMDYPEMGLCIIINNKNFHKSTGMTSRSGTDVDAANLRETFRNLKYEVRNKNDLTREEIVELMRDVSKEDHSKRSSFVCVLLSHGEEGIIFGTNGPVDLKKITNFFRGDRCRSLTGKPKLFIIQACRGTELDCGIETDSGVDDDMACHKIPVEADFLYAYSTAPGYYSWRNSKDGSWFIQSLCAMLKQYADKLEFMHILTRVNRKVATEFESFSFDATFHAKKQIPCIVSMLTKELYFYH
  in vitro cleavage of SRF, read by Western blot: Caspase 3 cleaved SRF in a time-dependent manner
